The text below walks through data of patent publication US20120027773A1 (AVEO PHARMACEUTICALS, published 2012).

Like-named read-outs stand apart in the source and are kept apart here.

Assay [1] has as its target T1, human wild-type RON (cell surface) (human, UniProt Q04912 25-1400).
T1 construct: whole, on cells; also called Human RON; wt RON
The assay is described as follows: FACS titration on PC3 cells, 4 C. As to the method: Binding to cell surface human wild-type RON and the delta 160 RON variant by antibodies 07F01, Sh07F01-62, 29B06, and Sh29B06-78 was measured at 4° C., using Fluorescence Activated Cell Sorting (FACS). PC3 cells expressing the human wild-type RON, and HT29 cells expressing the delta 160 variant, were harvested using cell dissociation buffer (Invitrogen), washed twice with FACS buffer (PBS with 0.5% BSA), and treated 10 minutes with Cyto Q Antibody diluent and FC receptor block (Innovex Biosciences, Richmond, Calif.). Purified antibodies were diluted in FACS buffer over a concentration range from 0.01 nM to 25 nM. Cells were incubated with 100 μl of antibody for one hour, washed with FACS buffer three times, and incubated for 45 minutes with goat anti-mouse PE-conjugated antibody (Jackson ImmunoResearch Laboratories, West Grove, Pa.) or donkey anti-human PE-conjugated antibody (Jackson ImmunoResearch Laboratories, West Grove, Pa.). Cells were washed three times with FACS buffer, resuspended in 300 μl of FACS buffer, and analyzed using a Beckman Coulter Cytomics FC 500 FACS instrument. All four antibodies were compared in the same experiment.

The target in assay [2] is T1, human wild-type RON (cell surface). In words: FACS titration on PC3 cells, 4 C. As to the method: (§1) Binding to cell surface human wild-type RON and the delta 160 RON variant by antibodies 29B06 and 07F01 was measured at 4° C., using Fluorescence Activated Cell Sorting (FACS). PC3 cells expressing the human wild-type RON, and HT29 cells expressing the delta 160 variant, were harvested using cell dissociation buffer (Invitrogen), washed twice with FACS buffer (PBS with 0.5% BSA), and treated for 10 minutes with Cyto Q Antibody diluent and FC receptor block (Innovex Biosciences, Richmond, Calif.). Purified antibodies were diluted in FACS buffer over a concentration range from 0.02 nM to 40 nM. Cells were incubated with 100 μl of antibody for one hour, washed with FACS buffer three times, and incubated for 45 minutes with goat anti-mouse PE-conjugated antibody (Jackson ImmunoResearch Laboratories, West Grove, Pa.). Cells were washed three times with FACS buffer, resuspended in 300 μl of FACS buffer, and analyzed using a Beckman Coulter Cytomics FC 500 FACS instrument.
The source holds these as a separate data set.

Assay [3] addresses T2, delta 160 RON variant (cell surface) (human, UniProt Q04912 25-1400).
T2 construct: whole, on cells; Splice variant; also called delta 160 variant
In words: FACS titration on HT29 cells, 4 C. As to the method: as §1

Assay [4] has as its target T3, recombinant human RON SEMA and PSI domains (human, UniProt Q04912 25-571).
T3 construct: domain: SEMA+PSI; Commercial protein (R&D Systems); also called rhRON SEMA+PSI; hRON SEMA+PSI
The assay is described as follows: SPR, Ab captured on anti-mouse IgG, 25 C, AVG. As to the method: The binding affinities and kinetics of binding of antibodies 07F01, 29B06, 17F06, 18H09, and 12B11 to recombinant human RON-ECD/mFc fusion protein (rhRON ECD/mFc) and recombinant human RON SEMA and PSI domains (rhRON SEMA+PSI) (R&D Systems, Inc., Minneapolis, Minn.) were measured by surface plasmon resonance, using a Biacore T100 instrument (GE Healthcare, Piscataway, N.J.).
Rabbit anti-mouse IgGs (GE Healthcare) were immobilized on carboxymethylated dextran CM4 sensor chips (GE Healthcare) by amine coupling, according to a standard protocol. Analyses were performed at 25° C. and 37° C., using PBS containing 0.05% surfactant P20 as running buffer. The antibodies were captured in individual flow cells at a flow rate of 10 μl/min. Injection time was varied for each antibody to yield an Rmax between 30 and 60 RU. 250 μg/mL mouse Fc were injected at 30 μl/min for 120 seconds to block non-specific binding of antibodies to Fc portion of the protein when needed. Buffer, rhRon ECD/mFc or rhRON SEMA+PSI diluted in running buffer was injected sequentially over a reference surface (no antibody captured) and the active surface (antibody to be tested) for 300 seconds at 60 μl/minute. The dissociation phase was monitored for up to 3600 seconds. The surface was then regenerated with two 60-second injections of 10 mM Glycine-HCl, pH 1.7, at a flow rate of 60 μl/min. The rhRON ECD/mFc or rhRON SEMA+PSI concentration range tested was 0.625 nM to 20 nM.

Assay [5] has as its target T3, recombinant human RON SEMA and PSI …. In words: ECL competition assay: antibody titrated on plate-coated hRON SEMA+PSI; blocked ligand MSP, detected with biotinylated anti-MSP antibody. As to the method: The biochemical neutralization assay measures inhibition of MSP binding to hRON by antibodies in hybridoma supernatants, using electrochemiluminescence (ECL). MA2400 96-well high binding plates (Meso Scale Discovery) were coated with 25 μl of 0.42 μg/mL hRON SEMA+PSI (an N-terminal portion of the ECD of hRON; R&D Systems) in PBS for one hour at room temperature with agitation. The plates were washed four times with PBS+0.1% Tween-20 (PBST), and blocked with 150 μl of charcoal-stripped fetal bovine serum (FBS) (Gibco). The hybridoma supernatant were added and incubated for 45 minutes at room temperature. After incubation, 5 μl of MSP (3 μg/mL) in charcoal stripped FBS was added to each well, and incubated for 45 minutes. The plate was washed four times with PBST, and 25 μl of 1 μg/mL biotinylated anti-MSP antibody (R&D Systems) was added to the plates for one hour at room temperature with agitation. The plates were washed four times with PBST, and incubated with 25 μl of 1 μg/mL ST-streptavidin (Meso Scale Discovery) for one hour at room temperature with agitation. The plates were washed four times with PBST, and 150 μl read buffer (Meso Scale Discovery) was added to each well before the plates were analyzed on a Sector Imager 2400 (Meso Scale Discovery) instrument. Antibodies 07F01, 18H09 and 29B06 each blocked MSP binding to hRON SEMA+PSI in this neutralization assay.
Antibodies 07F01, 12B11, 17F06, 18H09, and 29B06 were tested for inhibition of MSP binding to hRON SEMA+PSI, as measured by electrochemiluminescence (ECL) assay as described in Example 3. The antibodies (concentration range: 0.006-10 μg/mL) were incubated for 45 minutes at room temperature.

B1: 29B06 (antibody, mouse IgG1, kappa)
heavy: EVQLQESGPSLVKPSQTLSLTCSVTGDSITSGYWNWIRKFPGNKLEYMGYISYSGKTYYNPSLKSRISITRDTSKNHYYLQLISVTAEDTATYYCARSKYDYAMDYWGQGTSVTVSSAKTTPPSVYPLAPGSAAQTNSMVTLGCLVKGYFPEPVTVTWNSGSLSSGVHTFPAVLQSDLYTLSSSVTVPSSTWPSETVTCNVAHPASSTKVDKKIVPRDCGCKPCICTVPEVSSVFIFPPKPKDVLTITLTPKVTCVVVDISKDDPEVQFSWFVDDVEVHTAQTQPREEQFNSTFRSVSELPIMHQDWLNGKEFKCRVNSAAFPAPIEKTISKTKGRPKAPQVYTIPPPKEQMAKDKVSLTCMITDFFPEDITVEWQWNGQPAENYKNTQPIMDTDGSYFVYSKLNVQKSNWEAGNTFTCSVLHEGLHNHHTEKSLSHSPGK
light: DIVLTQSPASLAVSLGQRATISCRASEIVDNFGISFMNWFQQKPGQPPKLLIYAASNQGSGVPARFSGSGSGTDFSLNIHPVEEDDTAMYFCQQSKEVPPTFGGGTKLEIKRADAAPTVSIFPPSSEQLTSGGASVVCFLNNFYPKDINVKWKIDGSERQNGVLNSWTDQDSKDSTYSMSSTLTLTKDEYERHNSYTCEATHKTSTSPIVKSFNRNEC
notes: Murine hybridoma monoclonal, IgG1/kappa; also called mu29B06; antibody 29B06
A word on the Kd: it is a measure of binding affinity in units of concentration. As a reminder, the koff is the rate constant with which the complex falls apart. A word on the kon: it is the second-order rate constant of association. For B1, the Kd in assay [1] was 136 pM; in assay [2], 133 pM; in assay [3] it was 146 pM; in assay [4], 180 pM. Besides, the koff in assay [4] is 7e-05 s⁻¹. In assay [4], the kon worked out at 420000 M⁻¹ s⁻¹. Also, the “IC50 (read off the curve)” value in assay [5] was approximately 1000 pM.

B2: 07F01 (antibody, mouse IgG1, kappa, V domains shown)
VH: EVKLLESGGGLVQPGGSLKLSCAASGFDFSRHWMSWVRLAPGKGLEWIAEINPDSRTINYTPSLKEKFIISRDNAKNSLFLQMNRVRSEDTALYYCARRVRIHYYGAMDCWGQGTSVTVSS
VL: DIVLTQSQKIVSTSVGARVSVTCKASQNVGSSLVWYQQKPGQSPKTLIYSASFRYSGVPDRFTGSGSGTDFTLTISNVQSEDLADYFCQQYNNYPLTFGAGTKLELKR
notes: Murine hybridoma monoclonal, IgG1/kappa; also called mu07F01; antibody 07F01
For the molecule B2, the Kd in assay [1] came to 53 pM; in assay [2], 32 pM; in assay [3], 24 pM; in assay [4], 88 pM. The koff in assay [4] was found to be 0.00036 s⁻¹. Besides, the kon in assay [4] was found to be 5.2e+06 M⁻¹ s⁻¹. Moreover, the “IC50 (read off the curve)” value in assay [5] was approximately 300 pM.
